Test results taken from patent publication US7528106B2, “Compositions and methods for treatment of neovascular diseases” (The Scripps Research Institute, priority 2004, dated 2009).

System: deep retinal vascular network formation in neonatal Balb/C mice
Test: Neonatal mouse retinal angiogenesis model
Assay type: in vivo
Conditions: for % of eyes with 75-100% inhibition of deep vascular layer / % of eyes with 0-10% inhibition of deep vascular layer / % of eyes with 10-25% inhibition of deep vascular layer / % of eyes with 25-50% inhibition of deep vascular layer / % of eyes with 50-75% inhibition of deep vascular layer: intravitreal P4, read P12
Source text: Description of the Model. Immediately after birth (postnatal day zero; “P0”), retinal vasculature is virtually absent in the mouse. By four weeks after birth (P28) the retina has attained an adult pattern of retinal vessels coincident with the onset of vision. Physiological neovascularization of the retina occurs during this period via a stereotypical, biphasic developmental pattern of angiogenesis. During the primary phase of retinal vascular development, spoke-like peripapillary vessels grow radially from the central retinal artery and vein, becoming progressively interconnected by a capillary plexus that forms between them. This “inner retinal plexus” grows in area, volume and complexity, centrifugally, as a monolayer within the nerve fiber layer during the first seven to ten days following birth.
The second phase of retinal vessel formation begins between postnatal days 7 (P7) and 10 (P10) when collateral branches sprout from capillaries of the superficial plexus and penetrate into the retina where their tips branch and anastamose laterally to form a planar “deep vascular plexus”. While the deep vascular plexus is in place by P14, it undergoes extensive remodeling from P14 to P21. It is of interest to note that the formation of these vascular networks in the neonatal mouse are strikingly similar to the events occurring in the third trimester human fetus.
Advantages and Quantification of the Model. The reproducibility of the murine retinal development process and its easy accessibility in neonatal animals provide an opportunity to assess the efficacy of antiangiogenic compounds in a physiologically relevant model of angiogenesis. Additional advantages of the neonatal mouse model are the ability to qualitatively and quantitatively evaluate the angiostatic effect of putative antagonists of angiogenesis. Angiostatic activity was evaluated based upon the degree of angiogenesis in the deep, outer retinal vascular layer (secondary layer) that develops between P8 and P12. The appearance of the inner blood vessel network (primary layer) was evaluated for normal development and signs of toxicity.
Preparation of Compositions. Peptidomimetic integrin signaling inhibitor Compound (1) is solubilized in PBS at a concentration of about 20 mg/ml in PBS (1× concentration). T2-TrpRS is solubilized in PBS at a concentration of about 0.5 mg/ml (1× concentration). VEGF aptamer (pegaptanib sodium; Compound (2)) is solubilized in PBS at a concentration of about 2 mg/ml (1× concentration) to achieve an injection of approximately 1 μg/eye at 1× concentration. For all combination assays the compounds were prepared at 2 or 3 times the 1× concentration of each material and then combined to produce a final solution containing each individual compound at the same concentration as was used alone (e.g., 1×, 0.5×, 0.25× or 0.1×, as the case may be). For all assays, a single injection of 0.5 μl of PBS solutions of the drugs was administered intravitreally regardless of the number of compounds being injected. As used herein, the term “0.1×” refers to one tenth of the 1× concentration of a given material, “0.25×” refers to one quarter of the 1× concentration of a given material, “0.5×” refers to one half of the 1× concentration of a given material, and so forth for similar designations.
An in vivo angiogenesis assay in the neonatal mouse (Balb/C, The Jackson Laboratory, Bar Harbor, Me.) was used to evaluate the angiostatic activity of integrin signaling inhibitor Compound (1), T2-TrpRS, and VEGF aptamer Compound (2). Intravitreous injection and retina isolation was performed with a dissecting microscope (SMZ 645, Nikon, Japan). […] The samples (0.5 μl) were injected with a Hamilton syringe fitted with a 32-gauge needle (Hamilton Company, Reno, Nev.). The injection was made between the equator and the corneal limbus. During injection, the location of the needle tip was monitored by direct visualization to determine that it was in the vitreal cavity. […]

[1] = Table 12, composite data from the Examples, 1× (Compound (2) 0.5× to 1×)
[2] = Table 13A, 0.25 μg per eye, intravitreal P7, read P12
[3] = Table 13C low dosing, 0.1x (integrin ant. 1.0 μg, VEGF apt. 0.20 μg, T2-TrpRS 0.025 μg)

B1: T2-TrpRS: 43 kDa angiostatic T2 fragment of human tryptophanyl-tRNA synthetase, SEQ ID NO: 1 (protein)
chain: MSAKGIDYDKLIVRFGSSKIDKELINRIERATGQRPHHFLRRGIFFSHRDMNQVLDAYENKKPFYLYTGRGPSSEAMHVGHLIPFIFTKWLQDVFNVPLVIQMTDDEKYLWKDLTLDQAYSYAVENAKDIIACGFDINKTFIFSDLDYMGMSSGFYKNVVKIQKHVTFNQVKGIFGFTDSDCIGKISFPAIQAAPSFSNSFPQIFRDRTDIQCLIPCAIDQDPYFRMTRDVAPRIGYPKPALLHSTFFPALQGAQTKMSASDPNSSIFLTDTAKQIKTKVNKHAFSGGRDTIEEHRQFGGNCDVDVSFMYLTFFLEDDDKLEQIRKDYTSGAMLTGELKKALIEVLQPLIAEHQARRKEVTDEIVKEFMTPRKLSFDFQ
modifications: homo sapiens
% of eyes with 75-100% inhibition of deep vascular layer (Ex 10, 0.3× (1×=0.5 mg/ml)): 25%
% of eyes with 0-10% inhibition of deep vascular layer (Ex 10, 1× (0.5 mg/ml)): 8.3%
% of eyes with 10-25% inhibition of deep vascular layer (Ex 10, 1× (0.5 mg/ml)): 16.7%
% of eyes with 25-50% inhibition of deep vascular layer (Ex 10, 1× (0.5 mg/ml)): 25%
% of eyes with 50-75% inhibition of deep vascular layer (Ex 10, 1× (0.5 mg/ml)): 8.7%
% of eyes with 75-100% inhibition of deep vascular layer (Ex 10, 1× (0.5 mg/ml)): 41.7%
% of eyes with 0-10% inhibition of deep vascular layer (Ex 10, 2× (1×=0.5 mg/ml)): 8.3%
% of eyes with 10-25% inhibition of deep vascular layer (Ex 10, 2× (1×=0.5 mg/ml)): 25%
% of eyes with 25-50% inhibition of deep vascular layer (Ex 10, 2× (1×=0.5 mg/ml)): 0%
% of eyes with 50-75% inhibition of deep vascular layer (Ex 10, 2× (1×=0.5 mg/ml)): 16.7%
% of eyes with 75-100% inhibition of deep vascular layer (Ex 10, 2× (1×=0.5 mg/ml)): 41.7%
% of eyes with 0-10% inhibition of deep vascular layer (Ex 10, 3× (1×=0.5 mg/ml)): 66.7%
% of eyes with 10-25% inhibition of deep vascular layer (Ex 10, 3× (1×=0.5 mg/ml)): 25%
% of eyes with 25-50% inhibition of deep vascular layer (Ex 10, 3× (1×=0.5 mg/ml)): 8.7%
% of eyes with 50-75% inhibition of deep vascular layer (Ex 10, 3× (1×=0.5 mg/ml)): 0%
% of eyes with 75-100% inhibition of deep vascular layer (Ex 10, 3× (1×=0.5 mg/ml)): 0%
% of eyes with 0-10% inhibition of deep vascular layer (Ex 11, 0.3× (1×=0.5 mg/ml)): 33.3%
% of eyes with 10-25% inhibition of deep vascular layer (Ex 11, 0.3× (1×=0.5 mg/ml)): 16.7%
% of eyes with 25-50% inhibition of deep vascular layer (Ex 11, 0.3× (1×=0.5 mg/ml)): 0%
% of eyes with 50-75% inhibition of deep vascular layer (Ex 11, 0.3× (1×=0.5 mg/ml)): 0%
% of eyes with 75-100% inhibition of deep vascular layer (Ex 11, 0.3× (1×=0.5 mg/ml)): 50%
% of eyes with 0-10% inhibition of deep vascular layer (Ex 11, 1× (0.5 mg/ml)): 14.3%
% of eyes with 10-25% inhibition of deep vascular layer (Ex 11, 1× (0.5 mg/ml)): 14.3%
% of eyes with 25-50% inhibition of deep vascular layer (Ex 11, 1× (0.5 mg/ml)): 7.1%
% of eyes with 50-75% inhibition of deep vascular layer (Ex 11, 1× (0.5 mg/ml)): 14.3%
% of eyes with 75-100% inhibition of deep vascular layer (Ex 11, 1× (0.5 mg/ml)): 50%
% of eyes with 0-10% inhibition of deep vascular layer (Ex 11, 2× (1×=0.5 mg/ml)): 12.5%
% of eyes with 10-25% inhibition of deep vascular layer (Ex 11, 2× (1×=0.5 mg/ml)): 12.5%
% of eyes with 25-50% inhibition of deep vascular layer (Ex 11, 2× (1×=0.5 mg/ml)): 12.5%
% of eyes with 50-75% inhibition of deep vascular layer (Ex 11, 2× (1×=0.5 mg/ml)): 12.5%
% of eyes with 75-100% inhibition of deep vascular layer (Ex 11, 2× (1×=0.5 mg/ml)): 50%
% of eyes with 0-10% inhibition of deep vascular layer (Ex 11, 3× (1×=0.5 mg/ml)): 14.3%
% of eyes with 10-25% inhibition of deep vascular layer (Ex 11, 3× (1×=0.5 mg/ml)): 14.3%
% of eyes with 25-50% inhibition of deep vascular layer (Ex 11, 3× (1×=0.5 mg/ml)): 14.3%
% of eyes with 50-75% inhibition of deep vascular layer (Ex 11, 3× (1×=0.5 mg/ml)): 28.5%
% of eyes with 75-100% inhibition of deep vascular layer (Ex 11, 3× (1×=0.5 mg/ml)): 28.5%
% of eyes with 0-10% inhibition of deep vascular layer (Ex 11, 5× (1×=0.5 mg/ml)): 16.6%
% of eyes with 10-25% inhibition of deep vascular layer (Ex 11, 5× (1×=0.5 mg/ml)): 33.3%
% of eyes with 25-50% inhibition of deep vascular layer (Ex 11, 5× (1×=0.5 mg/ml)): 33.3%
% of eyes with 50-75% inhibition of deep vascular layer (Ex 11, 5× (1×=0.5 mg/ml)): 16.6%
% of eyes with 75-100% inhibition of deep vascular layer (Ex 11, 5× (1×=0.5 mg/ml)): 0%
mice having 75-100% inhibition in the deep vascular layer, maximum over doses (Examples 10 and 11, 0.1× to 5×): ≤ 50%
% of mice with 0-10% inhibition of deep vascular layer [1]: 23.9%
% of mice with 10-25% inhibition of deep vascular layer [1]: 17.4%
% of mice with 25-50% inhibition of deep vascular layer [1]: 15.2%
% of mice with 50-75% inhibition of deep vascular layer [1]: 8.7%
% of mice with 75-100% inhibition of deep vascular layer [1]: 34.8%
% of mice with 100% inhibition of deep vascular layer [1]: 2.2%
% of mice with >95% inhibition of deep vascular layer [1]: 8.7%
Percentage of retinas with 0-10% neovascular inhibition [2]: 23.9%
Percentage of retinas with 10-25% neovascular inhibition [2]: 17.4%
Percentage of retinas with 25-50% neovascular inhibition [2]: 15.2%
Percentage of retinas with 50-75% neovascular inhibition [2]: 8.7%
Percentage of retinas with 100% neovascular inhibition [2]: 2.2%
Percentage of retinas with >75% neovascular inhibition [2]: 34.8%
Percentage of retinas with >90% neovascular inhibition [2]: 8.7%
Percentage of retinas with 0-10% neovascular inhibition [3]: 50%
Percentage of retinas with 10-25% neovascular inhibition [3]: 37.5%
Percentage of retinas with 25-50% neovascular inhibition [3]: 12.5%
Percentage of retinas with 50-75% neovascular inhibition [3]: 0%
Percentage of retinas with 100% neovascular inhibition [3]: 0%
Percentage of retinas with >75% neovascular inhibition [3]: 0%
Percentage of retinas with >90% neovascular inhibition [3]: 0%
retinas that developed a normal, complete deep vascular plexus (monotherapy at optimal dose): 24%
retinas that exhibited over 75% inhibition (monotherapy at optimal dose): 35%
efficacy at the 95-100% inhibition level (with increasing dosages, Examples 10 and 11): ≤ 50%
